Source: PMC8058080

Molecular target: Acaryochloris marina photosystem I (PSI) monomer, 11 subunits (PsaA, PsaB, PsaC, PsaD, PsaE, PsaF, PsaJ, PsaK, PsaL, PsaM, Psa27) (Acaryochloris marina) (UniProt B0C474)
Assay: cryo-EM structure; PSI trimer purified from A. marina; 50 mM MES-NaOH pH 6.5, 5 mM CaCl2, 10 mM MgCl2, 0.002% LMNG; 2.58 Å with C3 symmetrization, 2.97 Å without

stoichiometry N: 3
Substance: Acaryochloris marina photosystem I (PSI) monomer, 11 subunits (PsaA, PsaB, PsaC, PsaD, PsaE, PsaF, PsaJ, PsaK, PsaL, PsaM, Psa27) (from UniProt B0C474 1-753; B0C475 1-736; B0CB42 1-81; B0C8F1 1-139; B0C5D5 1-89; B0C7S7 1-167; B0C7S6 1-51; B0C7S4 1-153; B0C4H4 1-31) (complex)
